The record followed here is patent US20240350583A1, “COMPOSITION FOR PREVENTING OR TREATING FIBROTIC DISEASES, COMPRISING HAPLN1” (Chung Ang University Industry Academic Cooperation …, priority 2021, published 2024).

“Also recorded” adds a separate entry of the source.

Test [1] deals with human kidney renal tubule cell (Human Kidney 2, HK-2). Description: Fibrosis prevention in HK-2 cells (simultaneous TGFβ1 and drug), αSMA western blot. The format is cell-based. Particulars: rhHAPLN1 50 ng/ml simultaneously with TGF-β (5 ng/ml), 24 hours. Here is the method:
(1) Human kidney renal tubule cells (HK-2) were seeded (1.0×10^5 cells/well) in a 6-well plate according to the experimental scheme of FIG. 6A and incubated in RPMI 1640 Medium (11875-093, Gibco) including 10% FBS for 24 hours in an incubator at 37° C. 5% CO2.
(2) The plates were then washed several times with PBS and each well of the plate was simultaneously treated with TGF31 (5 ng/ml) and the composition of the present disclosure (rhHAPLN1 protein content of 0, 5, 10, 20, and 50 ng/ml) and pirfenidone 0.2 mg/mL (200 μg/mL) and incubated for 24 hours.
(3) Each sample was then washed several times with ice-cold PBS, treated with radioimmunoprecipitation assay (RIPA) lysis and extraction buffer (Thermo Scientific) including protease and phosphatase inhibitors, scraped with a scraper, and transferred to an E-tube.
(4) By centrifugation (12000 rpm, 20 minutes, 4° C.), only the supernatant was obtained, and bicinchoninic acid (BCA) assay was performed to obtain quantitative protein values.
(5) After quantification using the obtained quantitative value, cooking was performed at 100° C. for 3 minutes and then stored in a −20° C. refrigerator.
(6) Using a 4% to 15% precast acrylamide PAGE gel, proteins were loaded at 10 μg per lane and run (80V-20 minutes, 120V-1 hour 30 minutes). […]
(11) After washing three times with TBST for 10 minutes each, the samples were detected by Chemidoc.
(Immunoblotting shows a protein as a band on a membrane.)

Test [2] has as its system bleomycin-induced pulmonary fibrosis (BIPF). The test can be described thus: Bleomycin-induced pulmonary fibrosis mouse model, prevention (inhalation from day 1). In kind it is in vivo. Particulars: for Ashcroft score (normal 0, control 6.25): nebulized 1 hour once daily for 10 days from 1 day after bleomycin. Here is the method:
The experimental animals used were 8-week-old female C57BL/6N (KBSI, Daejeon, Korea) mice, and were set as a normal control group (Normal, PBS) and two dose of administration groups (composition of the present disclosure including rhHAPLN1 protein). The water was changed every two days and the mice were allowed to eat ad libitum, and the mice were placed in one cage of four, and the temperature in the room was kept at 21° C. to 24° C. and the humidity at 40% to 60%, and the day and night cycles were 12 hours each.
To establish a bleomycin-induced pulmonary fibrosis (PF) model, 8-week-old female C57BL/6N mice were used, and divided into 4 groups (Normal, Control, 0.0005% (w/w) rhHAPLN1, 0.0015% (w/w) rhHAPLN1), with 4 mice per group, and the IPF disease induction method was referred to the paper by Liu et al. (Methods in Molecular Biology 2017, DOI: 10.1007/978-1-4939-7113-8_2) (see FIG. 12A). Administration of bleomycin (Bleomycin sulfate from Streptomyces verticillus. B8416; Sigma-Aldrich Co.) to induce idiopathic pulmonary fibrosis (IPF) was performed using a 1 ml-syringe and an oral dosing needle (Oral Zonde Needle 0.9×50 mm; 20 Guage) was used to anesthetize the patient and then carefully instillated orally intratracheally in a single 25 μl dose at a concentration of 2 U/kg, followed by nebulization with fresh 10 ml phosphate-buffered saline (1×PBS, pH 7.4; Gibco Co.) added dropwise to a nebulizer to generate nebulization and be freely inhaled.
Starting 1 day after bleomycin administration, the control was a mixture of 50 μl of a stock solution consisting of 20 mM Tris-HCl, 0.5 M NaCl, pH 8.0, 50% glycerol and 10 ml PBS (1×, pH 7.4, Gibco Co.) solution, while the two groups for the compositions of the present disclosure were treated with 50 μl of rhHAPLN1 stock solution at a rhHAPLN1 weight ratio concentration of 0.0005% (w/w), in other words, 5,000 ng/ml, and 0.0015% (w/w), in other words, 15,000 ng/ml, respectively, were mixed in 10 ml PBS (1×, pH 7.4, Gibco Co.) and administered to each group once a day for 1 hour by nebulization via the nebulizer described above. The weight of each experimental animal was measured every 2 days to confirm that there was no change in weight, and a mass dosing system and aerosol chamber (Data Science International Co.) were used to generate the mist. […]
Next, three tissue slides were prepared per mouse by cutting the middle portion of the left large lobe of the mouse, and three sections were photographed randomly on one slide, and then, for a total of nine sections, the stained darker part was distinguished from the unstained white part, and the area of the stained darker part was measured using Image J software, and each figure obtained was averaged to obtain an average value per mouse. […]

B1: rhHAPLN1: recombinant human HAPLN1 protein of SEQ ID NO: 1 produced in CHO-K1 cells, stabilized in acetic acid buffer, sucrose, PS80, pH 5.0 (protein, listed as Homo sapiens)
chain: MKSLLLLVLISICWADHLSDNYTLDHDRAIHIQAENGPHLLVEAEQAKVFSHRGGNVTLPCKFYRDPTAFGSGIHKIRIKWTKLTSDYLKEVDVFVSMGYHKKTYGGYQGRVFLKGGSDSDASLVITDLTLEDYGRYKCEVIEGLEDDTVVVALDLQGVVFPYFPRLGRYNLNFHEAQQACLDQDAVIASFDQLYDAWRGGLDWCNAGWLSDGSVQYPITKPREPCGGQNTVPGVRNYGFWDKDKSRYDVFCFTSNFNGRFYYLIHPTKLTYDEAVQACLNDGAQIAKVGQIFAAWKILGYDRCDAGWLADGSVRYPISRPRRRCSPTEAAVRFVGFPDKKHKLYGVYCFRAYN
With B1, in test [1], the “fibrosis prevention (αSMA) compared to pirfenidone at 200 μg/mL (FIG. 6B, FIG. 6C)” value is “superior fibrosis prevention action compared to pirfenidone; also recorded: significantly higher” and the “fibrosis prevention efficacy (αSMA) compared to composition that does not include rhHAPLN1 protein (FIG. 6C)” value is given as “superior fibrosis prevention efficacy”. Besides, the “Ashcroft score (normal 0, control 6.25)” value in test [2] (composition 1, rhHAPLN1 0.0005% (w/w)) is on record as 5.25. Also, the “Ashcroft score (normal 0, control 6.25)” value in test [2] (composition 2, rhHAPLN1 0.0015% (w/w)) is on record as 0.5. Moreover, in test [2] (rhHAPLN1 0.0015% (w/w)), the “H&E lung tissue form (FIG. 12B)” value is “quite similar to that of the normal group” and the “average area of dark (fibrotic) H&E-stained lung area compared to control (FIG. 12C)” value is recorded as “reduced to be quite close to the normal group”.
